Measured values reported in patent publication US20260116966A1 (KEYMED BIOSCIENCES CHENGDU, published 2026).

T1: Cynomolgus GPRC5D (Cynomolgus, UniProt Q9NZD1 1-343 (human entry))
T1 construct: Full length, on stably transfected cells (HEK293-cyGPRC5D, CHO-cyGPRC5D); also called cyGPRC5D
T1 chain: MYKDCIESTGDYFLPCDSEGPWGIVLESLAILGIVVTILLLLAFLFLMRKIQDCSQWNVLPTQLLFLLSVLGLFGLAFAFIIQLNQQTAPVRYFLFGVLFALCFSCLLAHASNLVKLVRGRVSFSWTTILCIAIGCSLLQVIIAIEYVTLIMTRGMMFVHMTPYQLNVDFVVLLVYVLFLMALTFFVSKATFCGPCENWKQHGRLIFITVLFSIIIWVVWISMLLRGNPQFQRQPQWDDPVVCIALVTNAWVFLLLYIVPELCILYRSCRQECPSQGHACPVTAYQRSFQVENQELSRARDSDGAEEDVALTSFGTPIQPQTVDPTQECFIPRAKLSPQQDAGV


What was measured:
human GPRC5D [1] = biological target: T2, human GPRC5D (human, UniProt Q9NZD1 1-345); assay: cell-based or functional assay
[2] = biological target: T3, CD3 receptor on the surface of Jurkat cells (human, UniProt P07766 23-207); assay: cell-based or functional assay
human GPRC5D [3] = biological target: T2, human GPRC5D; assay: cell-based or functional assay; remark: listed apart in the source
human GPRC5D [4] = biological target: T2, human GPRC5D; assay: flow cytometry, MM.1R cells
Experimental: The cell suspension of MM.1R cells in logarithmic growth phase was adjusted to a concentration of 5×10⁵ cells/mL, and 100 μL per well was added to a 96-well U-shaped plate, and centrifuged at 300 g for 5 min. The supernatant was discarded. […] The primary antibody was washed away, and 50 μL/well Alexa Fluro647 labeled goat anti-human IgG FC (1:300 dilution) was added, and incubated on ice for 20 min. After washing once, 50 μL/well of PI was added, incubated for 5 min, and detected by flow cytometry.

[5] = biological target: T3, CD3 receptor on the surface of Jurkat …; assay: flow cytometry, Jurkat cells
Experimental: The cell concentration was adjusted with 4% calf serum to 5×10⁵ cells/mL. 100 μL per well was added to a 96-well U-shaped plate, and centrifuged at 300 g. The supernatant was removed. […] The secondary antibody 50 μL/well of Alexa Fluro647 labeled goat anti-human IgG Fc (1:300 dilution) was added, and incubated on ice for 20 min. After washing once, 50 μL/well of PI was added, incubated for 5 min, and detected by flow cytometry.

human GPRC5D [6] = biological target: T2, human GPRC5D; assay: flow cytometry, HEK293-hGPRC5D cells
Experimental: (§1) HEK293-hGPRC5D and HEK293-cyGPRC5D stably transfected cells in logarithmic growth phase were respectively adjusted to a cell density of 5×10⁵ cells/mL. Then, 100 μl/well of the cell suspension was added to a 96-well U-shaped plate, and centrifuged at 300 g for 5 min. The supernatant was discarded. […] The secondary antibody 50 μL/well of Alexa Fluro647 labeled goat anti-human IgG Fe (1:300 dilution) was added, and incubated on ice for 20 min. After washing once, 50 μL/well of PI solution (1:300) was added, incubated for 5 min, and detected by flow cytometry.

human GPRC5D [7] = biological target: T2, human GPRC5D; assay: flow cytometry, HEK293-hGPRC5D cells; remark: listed apart in the source
Experimental: Cell suspensions of HEK293-hGPRC5D and HEK293-hBCMA stably transfected cells in logarithmic growth phase were adjusted to 5×10⁵ cells/ml. Then, 100 μl/well of the cell suspension was added to a 96-well U-shaped plate, and centrifuged at 300 g for 5 min. The supernatant was discarded. 100 μL per well of serially diluted antibody was added, and incubated at 4° C. for 60 min. The secondary antibody 50 μL/well of Alexa Fluro647 labeled goat anti-human IgG Fc (1:300 dilution) was added, and incubated on ice for 20 min. After washing once, 50 μL/well of PI solution was added, incubated for 5 min, and detected by flow cytometry.

Cynomolgus GPRC5D [8] = biological target: T1, Cynomolgus GPRC5D; assay: flow cytometry, HEK293-cyGPRC5D cells
Experimental: as §1

Cynomolgus GPRC5D [9] = biological target: T1, Cynomolgus GPRC5D; assay: flow cytometry, HEK293-cyGPRC5D cells against HEK293-hGPRC5D cells
Experimental: as §1

[10] = biological target: T3, CD3 receptor on the surface of Jurkat …; assay: flow cytometry on Jurkat cells
Experimental: Jurkat cells in logarithmic growth phase were added with 200 μg/mL mouse IgG, and allowed to stand in an ice bath for 30 min. The cells were adjusted with 4% calf serum to 5×10⁵ cells/mL. 100 μL per well was added to a 96-well U-shaped plate, and centrifuged at 300 g. The supernatant was removed. 100 μL per well of serially diluted antibody was added, and incubated at 4° C. for 60 min. The secondary antibody 50 μL/well of Alexa Fluro647 labeled goat anti-human IgG Fc (1:300 dilution) was added, and incubated on ice for 20 min. After washing once, 50 μL/well of PI was added, incubated for 5 min, and detected by flow cytometry.

T3 sequence (P07766 23-207): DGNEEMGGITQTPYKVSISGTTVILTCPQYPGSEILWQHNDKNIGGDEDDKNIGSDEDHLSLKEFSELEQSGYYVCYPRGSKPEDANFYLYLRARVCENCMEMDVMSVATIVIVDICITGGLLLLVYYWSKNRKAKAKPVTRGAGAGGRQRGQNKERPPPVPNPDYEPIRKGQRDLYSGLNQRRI
T2 sequence (Q9NZD1 whole entry): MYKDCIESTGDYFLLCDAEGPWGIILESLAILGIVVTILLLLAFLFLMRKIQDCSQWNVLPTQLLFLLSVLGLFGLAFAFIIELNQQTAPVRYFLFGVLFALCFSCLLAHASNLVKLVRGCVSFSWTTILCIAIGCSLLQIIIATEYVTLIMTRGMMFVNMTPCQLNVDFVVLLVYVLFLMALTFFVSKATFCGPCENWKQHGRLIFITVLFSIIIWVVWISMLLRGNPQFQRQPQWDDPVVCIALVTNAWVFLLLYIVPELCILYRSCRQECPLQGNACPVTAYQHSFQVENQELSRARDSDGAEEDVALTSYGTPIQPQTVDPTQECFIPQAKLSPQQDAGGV

Binder | TDCC, EC50 (nM), MM.1R (human GPRC5D [1]) [nM] | Jurkat-NFAT-luc, EC50 [2] [nM] | TDCC EC50 (nM), HEK293-hGPRC5D (human GPRC5D [3]) [nM] | TDCC EC50 (nM), MM.1S (human GPRC5D [3]) [nM] | TDCC EC50 (nM), NCI-H929 (human GPRC5D [3]) [nM] | EC50 (human GPRC5D [4]) [nM] | EC50 [5] [nM] | EC50 (human GPRC5D [6]) [nM] | EC50 (human GPRC5D [7]) [nM] | EC50 (Cynomolgus GPRC5D [8]) [nM] | fold difference of affinity, Cynomolgus GPRC5D against human GPRC5D (Cynomolgus GPRC5D [9]) [fold] | binding result [10]
2F1 × CD3 H4K5 GPRC5D×CD3 κλ bispecific antibody variant (bispecific antibody, human IgG4 S228P, kappa, lambda, also called h2F1 H4K5) heavy 1: QVQLVQSGAEVKKPGSSVKVSCKASGYSFTGYTMNWVREAPGQGLEWMGLINPYNGGTRYNQKFQGRVTITADESTSTAYMELSSLRSEDTAVYYCARWALRYGMDYWGQGTLVTVSSASTKGPSVFPLAPCSRSTSESTAALGCLVKDYFPEPVTVSWNSGALTSGVHTFPAVLQSSGLYSLSSVVTVPSSSLGTKTYTCNVDHKPSNTKVDKRVESKYGPPCPPCPAPEFEGGPSVFLFPPKPKDTLMISRTPEVTCVVVDVSQEDPEVQFNWYVDGVEVHNAKTKPREEQFNSTYRVVSVLTVLHQDWLNGKEYKCKVSNKGLASSIEKTISKAKGQPREPQVCTLPPSQEEMTKNQVSLSCAVKGFYPSDIAVEWESNGQPENNYKTTPPVLDSDGSFFLVSKLTVDKSRWQEGNVFSCSVMHEALHNHYTQKSLSLSLGK light 1: DIQMTQSPSSLSASVGDRVTITCQASQNVGTNVAWYQKKPGQAPKALIYSASYLNSGVPSRFSGSGSGTDFTFTISSLQPEDIATYFCQQYNSYLLTFGGGTKVEIKRTVAAPSVFIFPPSDEQLKSGTASVVCLLNNFYPREAKVQWKVDNALQSGNSQESVTEQDSKDSTYSLSSTLTLSKADYEKHKVYACEVTHQGLSSPVTKSFNRGEC heavy 2: EVQLVESGGGLVQPGGSLRLSCAASGFTFNTYAMNWVRKAPGKGLEWVGRIRSKYNNYATYYADSVKDRFTISRDDSKNSLYLQMNSLKTEDTAVYYCVRHGNFGNSYVSWFAYWGQGTLVTVSSASTKGPSVFPLAPCSRSTSESTAALGCLVKDYFPEPVTVSWNSGALTSGVHTFPAVLQSSGLYSLSSVVTVPSSSLGTKTYTCNVDHKPSNTKVDKRVESKYGPPCPPCPAPEFEGGPSVFLFPPKPKDTLMISRTPEVTCVVVDVSQEDPEVQFNWYVDGVEVHNAKTKPREEQFNSTYRVVSVLTVLHQDWLNGKEYKCKVSNKGLASSIEKTISKAKGQPREPQVYTLPPCQEEMTKNQVSLWCLVKGFYPSDIAVEWESNGQPENNYKTTPPVLDSDGSFFLYSKLTVDKSRWQEGNVFSCSVMHEALHNHYTQKSLSLSLGK light 2: QAVVTQEPSLTVSPGGTVTLTCRSSTGAVTTSNYANWVQEKPGQAPRGLIGGTNKRAPWTPARFSGSLLGGKAALTITGAQAEDEAEYYCVLWYSNLWVFGGGTKLTVLGQPKAAPSVTLFPPSSEELQANKATLVCLISDFYPGAVTVAWKADSSPVKAGVETTTPSKQSNNKYAASSYLSLTPEQWKSHRSYSCQVTHEGSTVEKTVAPTECS | 0.008 | 0.662 | 0.014 | 0.017 | 0.036 | 15.7 | 1.9 | 2.8 | 8.4 | 12.8 | < 5 | 
GPRC5D × BCMA × CD3 triTCE-v2 trispecific antibody (other, Trispecific antibody: GPRC5D scFv fused to the N-terminus of the heavy chain of the BCMA arm) light 1: DIVLTQSPASLAVSPGQRATITCRASKSVSTSGYSYMHWYQKKPGQPPKLLIYLASNLESGVPARFSGSGSGTDFTLTINPVEAEDTANYYCQHSRELPWTFGQGTKVEIKRTVAAPSVFIFPPSDEQLKSGTASVVCLLNNFYPREAKVQWKVDNALQSGNSQESVTEQDSKDSTYSLSSTLTLSKADYEKHKVYACEVTHQGLSSPVTKSFNRGEC heavy 1: QVQLVQSGAEVKKPGSSVKVSCKASGYSFTGYTMNWVRQAPGQCLEWMGLINPYNGGTRYNQKFQGRVTITADESTSTAYMELSSLRSEDTAVYYCARWALRYGMDYWGQGTLVTVSSGGGGSGGGGSGGGGSDIQMTQSPSSLSASVGDRVTITCQASQNVGTNVAWYQQKPGQAPKALIYSASYLNSGVPSRFSGSGSGTDFTFTISSLQPEDIATYFCQQYNSYLLTFGCGTKVEIKGGGGSGGGGSGGGGSQVQLVQSGSELKKPGASVKVSCKASGYIFTNFGMNWVREAPGQGLEWMGWINTYTGEQIYADGFTGRFVFSLDTSVSTAYLQISSLKAEDTAVYFCARGEIYYGYDVGFVYWGQGTLVTVSSASTKGPSVFPLAPCSRSTSESTAALGCLVKDYFPEPVTVSWNSGALTSGVHTFPAVLQSSGLYSLSSVVTVPSSSLGTKTYTCNVDHKPSNTKVDKRVESKYGPPCPPCPAPEFEGGPSVFLFPPKPKDTLMISRTPEVTCVVVDVSQEDPEVQFNWYVDGVEVHNAKTKPREEQFNSTYRVVSVLTVLHQDWLNGKEYKCKVSNKGLASSIEKTISKAKGQPREPQVCTLPPSQEEMTKNQVSLSCAVKGFYPSDIAVEWESNGQPENNYKTTPPVLDSDGSFFLVSKLTVDKSRWQEGNVFSCSVMHEALHNHYTQKSLSLSLGK light 2: QAVVTQEPSLTVSPGGTVTLTCRSSTGAVTTSNYANWVQEKPGQAPRGLIGGTNKRAPWTPARFSGSLLGGKAALTITGAQAEDEAEYYCVLWYSNLWVFGGGTKLTVLGQPKAAPSVTLFPPSSEELQANKATLVCLISDFYPGAVTVAWKADSSPVKAGVETTTPSKQSNNKYAASSYLSLTPEQWKSHRSYSCQVTHEGSTVEKTVAPTECS heavy 2: EVQLVESGGGLVQPGGSLRLSCAASGFTFNTYAMNWVRKAPGKGLEWVGRIRSKYNNYATYYADSVKDRFTISRDDSKNSLYLQMNSLKTEDTAVYYCVRHGNFGNSYVSWFAYWGQGTLVTVSSASTKGPSVFPLAPCSRSTSESTAALGCLVKDYFPEPVTVSWNSGALTSGVHTFPAVLQSSGLYSLSSVVTVPSSSLGTKTYTCNVDHKPSNTKVDKRVESKYGPPCPPCPAPEFEGGPSVFLFPPKPKDTLMISRTPEVTCVVVDVSQEDPEVQFNWYVDGVEVHNAKTKPREEQFNSTYRVVSVLTVLHQDWLNGKEYKCKVSNKGLASSIEKTISKAKGQPREPQVYTLPPCQEEMTKNQVSLWCLVKGFYPSDIAVEWESNGQPENNYKTTPPVLDSDGSFFLYSKLTVDKSRWQEGNVFSCSVMHEALHNHYTQKSLSLSLGK |  |  | 0.045 |  |  |  |  |  | 7.9 |  |  | binds
2F1 × CD3 H4K7 GPRC5D×CD3 κλ bispecific antibody variant (bispecific antibody, human IgG4 S228P, kappa, lambda, also called h2F1 H4K7) heavy 1: QVQLVQSGAEVKKPGSSVKVSCKASGYSFTGYTMNWVREAPGQGLEWMGLINPYNGGTRYNQKFQGRVTITADESTSTAYMELSSLRSEDTAVYYCARWALRYGMDYWGQGTLVTVSSASTKGPSVFPLAPCSRSTSESTAALGCLVKDYFPEPVTVSWNSGALTSGVHTFPAVLQSSGLYSLSSVVTVPSSSLGTKTYTCNVDHKPSNTKVDKRVESKYGPPCPPCPAPEFEGGPSVFLFPPKPKDTLMISRTPEVTCVVVDVSQEDPEVQFNWYVDGVEVHNAKTKPREEQFNSTYRVVSVLTVLHQDWLNGKEYKCKVSNKGLASSIEKTISKAKGQPREPQVCTLPPSQEEMTKNQVSLSCAVKGFYPSDIAVEWESNGQPENNYKTTPPVLDSDGSFFLVSKLTVDKSRWQEGNVFSCSVMHEALHNHYTQKSLSLSLGK light 1: DIQMTQSPSSLSASVGDRVTITCQASQNVGTNVAWYQKKPGQAPKALIYSASYRNSGVPSRFSGSGSGTDFTFTISSLQPEDIATYFCQQYNSYLLTFGGGTKVEIKRTVAAPSVFIFPPSDEQLKSGTASVVCLLNNFYPREAKVQWKVDNALQSGNSQESVTEQDSKDSTYSLSSTLTLSKADYEKHKVYACEVTHQGLSSPVTKSFNRGEC heavy 2: EVQLVESGGGLVQPGGSLRLSCAASGFTFNTYAMNWVRKAPGKGLEWVGRIRSKYNNYATYYADSVKDRFTISRDDSKNSLYLQMNSLKTEDTAVYYCVRHGNFGNSYVSWFAYWGQGTLVTVSSASTKGPSVFPLAPCSRSTSESTAALGCLVKDYFPEPVTVSWNSGALTSGVHTFPAVLQSSGLYSLSSVVTVPSSSLGTKTYTCNVDHKPSNTKVDKRVESKYGPPCPPCPAPEFEGGPSVFLFPPKPKDTLMISRTPEVTCVVVDVSQEDPEVQFNWYVDGVEVHNAKTKPREEQFNSTYRVVSVLTVLHQDWLNGKEYKCKVSNKGLASSIEKTISKAKGQPREPQVYTLPPCQEEMTKNQVSLWCLVKGFYPSDIAVEWESNGQPENNYKTTPPVLDSDGSFFLYSKLTVDKSRWQEGNVFSCSVMHEALHNHYTQKSLSLSLGK light 2: QAVVTQEPSLTVSPGGTVTLTCRSSTGAVTTSNYANWVQEKPGQAPRGLIGGTNKRAPWTPARFSGSLLGGKAALTITGAQAEDEAEYYCVLWYSNLWVFGGGTKLTVLGQPKAAPSVTLFPPSSEELQANKATLVCLISDFYPGAVTVAWKADSSPVKAGVETTTPSKQSNNKYAASSYLSLTPEQWKSHRSYSCQVTHEGSTVEKTVAPTECS | 0.009 | 0.774 |  |  |  | 10.2 | 7.2 | 2.3 |  | 6.6 | < 5 | 
